Data published in patent US20240092876A1 (priority 2020, published 2024).
Where “and” joins values, the source holds several entries; their conditions need not be identical. Equal values may be shown once. Read-outs that look alike come from different tables or passages of the source.

How the values were obtained:
[1] = system: B/Victoria/504/2000 (Yamagata); design: species or system influenza B virus; details: in vivo, po, 10 mg/kg
[2] = system: B/Brisbane/60/2008 (Victoria); design: species or system influenza B virus; details: in vivo, po, 10 mg/kg
H3N2 A/Hong Kong/8/68 = system: H3N2 A/Hong Kong/8/68; design: species or system influenza A virus; details: in vivo, po, 10 mg/kg
H1N1 A/Puerto Rico/8/34 = system: H1N1 A/Puerto Rico/8/34; design: species or system influenza A virus; details: in vivo, po, 10 mg/kg
[3] = biological target: N1 neuraminidase from A/Swine/Jiangsu/J004/2018 (Influenza A virus A/Swine/Jiangsu/J004/2018 (H1N1))
[4] = biological target: N2 A/South Australia/34/2019 (245Gly+) (Influenza A virus A/South Australia/34/2019)
[5] = biological target: N1 neuraminidase from A/Swine/Jiangsu/J004/2018 (Influenza A virus A/Swine/Jiangsu/J004/2018 (H1N1)); remark: listed apart in the source
[6] = biological target: N2 A/South Australia/34/2019 (245Gly+) (Influenza A virus A/South Australia/34/2019); remark: listed apart in the source
[7] = biological target: N2_A_Leningrad_134_17_57 (influenza A virus); assay: flow cytometry on NA-expressing cells
[8] = biological target: N9 neuraminidase from A/Anhui/1/2013 (Influenza A virus A/Anhui/1/2013 (H7N9)); assay: flow cytometry on NA-expressing cells
[9] = biological target: B/Malaysia/2506/2004(Victoria) (influenza B virus); assay: flow cytometry on NA-expressing cells
[10] = biological target: N6_A_Swine_Ontario_01911_1_99 (influenza A virus); assay: flow cytometry on NA-expressing cells
[11] = biological target: N7_A_Netherlands_078_03 (influenza A virus); assay: flow cytometry on NA-expressing cells
[12] = biological target: N8_A_harbor_seal_New_hampshire_179629_2011 (influenza A virus); assay: flow cytometry on NA-expressing cells
[13] = biological target: B/Yamanashi/166/1998(Yamagata) (influenza B virus); assay: flow cytometry on NA-expressing cells
[14] = biological target: N2 neuraminidase from A/Washington/01/2007 (Influenza A virus A/Washington/01/2007); assay: flow cytometry on NA-expressing cells
[15] = biological target: N1 neuraminidase from A/Swine/Jiangsu/J004/2018 (Influenza A virus A/Swine/Jiangsu/J004/2018 (H1N1)); assay: flow cytometry on NA-expressing cells
[16] = biological target: N2_NA_A_South_Australia_34_2019 (influenza A virus); assay: flow cytometry on NA-expressing cells
[17] = biological target: B/Lee/10/1940(Ancestral) (influenza B virus); assay: flow cytometry on NA-expressing cells
[18] = biological target: N1 neuraminidase from A/California/07/2009 (Influenza A virus A/California/07/2009 (H1N1)); assay: flow cytometry on NA-expressing cells
[19] = biological target: N1_A_Stockholm_18_2007 (influenza A virus); assay: flow cytometry on NA-expressing cells
[20] = biological target: N1_NA_A_swine_Hebei_0116_2017 (influenza A virus); assay: flow cytometry on NA-expressing cells
[21] = biological target: N3_A_Canada_rv504_2004 (influenza A virus); assay: flow cytometry on NA-expressing cells

Question: How did the Kd (N2) turn out when 1G01 (antibody) was run?
Answer: < 1 pM

Question: And the koff (N2)?
Answer: < 1e-07 s⁻¹

Question: What about the kon (N2) of the same molecule?
Answer: 40200 M⁻¹ s⁻¹

Question: Which “reduction in viral titres in comparison to the vehicle” value (shortened to “reduction in viral titres”) [1] does the source give for `CCOC(=O)C1=C[C@@H](OC(CC)CC)[C@H](NC(C)=O)[C@@H](N)C1` [OSE, oseltamivir] here?
Answer: 1 log

Question: And the “reduction in viral titres” value [2]?
Answer: exception

Question: What about the “reduction in viral titres” value (H3N2 A/Hong Kong/8/68) of the same molecule?
Answer: 1 log

Question: And the “reduction in viral titres” value (H1N1 A/Puerto Rico/8/34)?
Answer: 1 log

Question: What does the source list for FNI3 (antibody)?
Answer: Alexa 647-A+ (percent of cells in the positive gate) [3]: 83.9% and 85.2%; Kd (N2): < 1 pM; koff (N2): < 1e-07 s⁻¹; kon (N2): 11500 M⁻¹ s⁻¹; Alexa 647-A+ (percent of cells in the positive gate) [4]: 59.2% and 54%; Alexa 647-A+ (percent of cells in the positive gate) [5]: 83.7% and 79.6%; Alexa 647-A+ (percent of cells in the positive gate) [6]: 49.1% and 48.4%; MFI normalized vs wt [7]: 1; MFI normalized vs wt [8]: 1; MFI normalized vs wt [9]: 1; MFI normalized vs wt [10]: 1; MFI normalized vs wt [11]: 1; MFI normalized vs wt [12]: 1; MFI normalized vs wt [13]: 1; MFI normalized vs wt [14]: 1; MFI normalized vs wt [15]: 1; MFI normalized vs wt [16]: 1; MFI normalized vs wt [17]: 1; MFI normalized vs wt [18]: 1; MFI normalized vs wt [19]: 1; MFI normalized vs wt [20]: 1; MFI normalized vs wt [21]: 1

Question: With FNI9 (antibody) as the molecule, how does the Alexa 647-A+ (percent of cells in the positive gate) [3] read?
Answer: 84% and 83.5%

Question: What about the Kd (N2) of the same molecule?
Answer: < 1 pM

Question: And the Alexa 647-A+ (percent of cells in the positive gate) [4]?
Answer: 66.1% and 71.3%

Question: And the Alexa 647-A+ (percent of cells in the positive gate) [5]?
Answer: 82.1% and 78%

Question: And the Alexa 647-A+ (percent of cells in the positive gate) [6]?
Answer: 68.8% and 57%
